# Test: soluble on expression in E. coli; label from the status in PepcDB or PDB records
row,Sequence,soluble on expression in E. coli
1,MGSDKIHHHHHHMSSDIHLAFAHPSERSAATARPGALDRISLRDHIVEVEIGAFQQERGTTQRVCFNVVVEIAPLPADLDDDVDRILSYDKVTEAIAHELARERLALLETLAERVAERILWEPQAVRAFVRIEKLDRGPGKLGVEIVRSADQVSHEADEDVKPHPRLMFLSNAAIDSDNLTGWIDQMECRERPLILCVGAHDLALPQTGHKWTQRRIDLLAIEQNAWRLAARDSRCKVVETRTELDWAMKNGQICVWAPSKIVLDAVEGPSEPPSNAVALAAWFASTFEAEEMIVIGAELPENPGVPLRAHAEEQHTL,not soluble
2,MNAIILAAGFGSRLMPLTKDQPKCMVEYKNKKIIDYEIEALKSAGINEIAVVGGYLNDVLKNYLNKYDIEHFFINSKYDKTNMVHTFFCAKDFMLKCIEEKQDLIISYADIVYFQDCVQKLINAKEELAIVVDKSWCKLWSKRFANPLEDAETLKMTNGYIIELGKKANAYDEIEAQYIGLFKFSYQFLSEVIAFYEMLDRDILYDNKNFENMYMTSFLQALIEKYNNAKAVEIDGNWCEIDFMSDLEVQIEKLEHHHHHH,not soluble
3,LPVTDNHIHVDDKHGYGAEKVAKTFYNAGGKVMIVLNKPTFDGNLTASMDILVRDVEIINKNTPVKAFGLVGVHPAELTYLMKFMSLEEAKQRIVDALNYAKKLVEEYDFIVGIGEVGRPHYPVSEDVWKASNEILKYCMELAKDIGCAIQIHAESSTEEQFKEFSEMAKEVGLNPEKVVKHHCGNMVLEGERYGIFPSILASRVNEDVVKKSLRFVMETDYIDDLKRPGVALGIKTVPRVTRRLIEKGVLDEEGVYKIHKENIERIYDM,not soluble
4,MEAHGSARLSRKRKRDGSNGEPEEGEKPLKFKRCTVGLKYPAPYADQLESMEDKQYQRVTIEEARRGTPPDRPVRVYADGIFDMFHSGHARALMQAKCLFPNTHLIVGVCSDDLTHKLKGFTVMNEDERYDAVSHCRYVDEVVRNAPWTLTPEFLTKHRIDFVAHDDIPYSSADSDDVYKHIKDAGMFAPTQRTEGISTSDIITRIVRDYDVYVRRNLQRGYTAKELNVSFINEKKYNLQERVDKVKKKVKDVEEKSKEFVQKVEEKSIDLIQKWEEKSREFIGNFLQMFGPEGALKHMLKEGKGRMLQAISPRQSPSSSPTRERSPSPTFRLPFFNKTSTPSSPSSHHSSALSGYTYAARGQAISEDEEDDED,soluble
5,MGSDKIHHHHHHCKDDDTLLRGSGITEQSWSTNQTYFASAEQTLTFTFTTLSSWTAQNSSTALLSLDNTAGNSGENTIKVTVHKSSQEQGTITIKVNGYSSASNIKIQLSDDDVQGYEINYSVDQYLREKYLWNDDYKLLTPNFRQAYDEFLRNTLLSMTTNTLDKKRNSNGTYSLFSFIQKLDPDLQTSRSAKEKKTLEYNYGFVNFIAVGNRNNSNYGLVIQGVHKGSSADKEGLKRGMEITEIDNQRITTTNVQACYSKLIKPSSPTSIKVKDKDGKVYTINSGPIYANPIIHHQVNEKIGYLVYSAFESGFDQELFDVFKEFKSQNITELILDLRYNGGGDVTSANLISSCIAGDLCIDKTFASYRYNDERMKVLGNQRPIQKFAYSQYDNLSTSLSAGGLNLRKIYCLVTDDSASASELVINALRGIDIEVILIGTTTHGKNVGMEGVELTAGTDKYLLFPITFQAYNAKGFGDFENGFTPDYEINENKPNGEYFEGYGDFGAESDPLYAKAISLISGNEVTTPTRAVNQAKEQMLVIATPRLNRIGMIK,not soluble
6,MKKVYIKTFGCQMNEYDSDKMADVLGSAEGMVKTDNPEEADVILFNTCSVREKAQEKVFSDLGRIRPLKEANPDLIIGVGGCVASQEGDAIVKRAPFVDVVFGPQTLHRLPDLIESRKQSGRSQVDISFPEIEKFDHIPPAKVDGGAAFVSIMEGCSKYCSFCVVPYTRGEEVSRPFEDVLTEIAGLAAQGVKEITLLGQNVNAYRGLMSDGEIADFALLLEYVHEVPGVERIRFTTSHPREFSQRIIDCYAKLPKLVSHLHLPVQSGSDRVLMAMKRGYTGLEYKSIIRKLRAIRPDLCLSSDFIIGFPGETEADFEQTLKLVRDCEFDFSFVFIYSPRPGTPAANLPDDTPHAEKVRRLEALNEVIEAKGYAINQSMVGTVQRVLVENVSKKDATMLAARTANNRVVNFAGHPRLLGRMIEVKITAAFPHSLAGEALTSESALEHHHHHH,soluble
7,MSLNIFDIAKQNQEKAWQVIKNTNIIQIWEDAGAKINLVGSLRTGLLMKHRDIDFHIYSSPLNLTDSFQAMARLAENPSIKRIECANLLHTAEACIEWHAWYQNEENELWQMDMIHIREGSRYDGYFEKVAQRISEIMTDEIRETILRLKYETPETEKIIGVEYYQAVIRDGVRDYSGFKEWRKQHPVTGVVEWMPEGHHHHHH,soluble
8,MGSRTGSREEHSLQFLNLTKMTTTTASNLPWVEKYRPSKLDELVAHEQIVKTLTKFIENRTLPHLLFYGPPGTGKTTTVLAAARQMYSPTKMASMVLELNASDERGIDVVRNTIVNFAQTKGLQAFSTSSNTGTVPFKLVILDEADAMTKDAQNALRRLDKTDYEQNIIIHNVNIYFRVIEKYTDNVRFCIICNYLASIVPAIQSRCTRFRFAPLDQKLIVPRLEYIVETEQLKMTPDGKDALLIVSKGDMRTVINTLQSTAMSFDTVSENTVYQCIGQPTPKEMKEVVKTLLNDPSKKCMNTIQTKLFENGYALQDVITHLHDFVFTLDIPDEAMSAIITGLGEVEENLSTGCSNETQLAAVVAAFFEAKRLCVKEMKNLEIEDMEF,not soluble
9,MVYRKVTISTKVFENTNAIVAWVSGRPVLLSKYEGKYYAMDAVCGHMGCAILDKVEGKEAVCPAHRARYDVTTGKKTADAVIRPEVKCEYNEASDTLKVYPVRENNGFLEVDMP,not soluble
10,MKLLHTADLHMDRSFEGLTGIPTALAKRLREANQQLLMNIVTVAIREAVDLVIFAGDTFHQSQTSISMQAQLMAALEQLKQAEIPVILTFGNHDYYKKDRYWFSFPDNVFLFEKEMVETLYFETKAGEQVAVSGFSYEHPWIDENKALEFPIKQAESDIHIGIYHGDTSRKAQQNYAPFTWKDLKATGYNYWALGHIHQPQIVSEQPLIVYPGTPQGHTKKEQSLQGVAVVTLSQNQATVQFEKVAEIDWTNEEVSLAQCRDTQSVLSYLETSLLTKWQAHQQQQLMALTLKETQHLDVTVVQAIVNGELLSYLQQQLLQKTQGDFFVYRLILQAEEPTKEPIYLAASPNLLTALEKTYLDPVIFEDTTKELLRYPEFAGIFSMDEQWRLESLRLAHEQINEDFTIQEDPL,not soluble
11,MTVASTLGLNETQYATDDCLEEIINNTRAVRQDSEKTRFKLQINNFLAEVASGSLVINSDLIGSIEKRIADIDKLMSEQLSLIMHATEFQKIESAWTGLYKLVQASVTENVKYTVLHCTKKELLKDFKSASDFDQSVLFKNIYESEYGTFGGTPYSAFVGDFYFDNTPQDIDLLEHISHVAASAHAPFLSAIAPGMLSMSSFSELPYPRDLAKLFETTDYARWRSFRQTDDSRYVGLTLPQSLGRIPYGMKTIPAETFNFEEHISEDNSGKDYLWVNTAFELACRIVDAFEEYGWCAAIRGVEGGGLVKSLPAYNYVSHTGERLLQCPTEVAISDRREKELSDLGFIPLVYCKGTDFAAFFAVQSVNKARLYNTDQANANAKLSSQLQYILATSRFAHYLKVIVRDKVGSFMSRTECQTYLQNWIMQYVVASDNAGQETKARYPLREASVEVIEVPGSPGNYRAIAWIKPHFQLEGLSMSLRLVADLPSSVS,not soluble
12,WYKDRGVYHWLSSGQEGTDIPYLGSSVFCSELYEKQMELIRLQHQKLHETEAKLDARVTYMNQWVHQVKTPLSVINLIIQEEDEPVFEQIKKEVRQIEFGLETLLYSSRLDLFERDFKIEAVSLSELLQSVIQSYKRFFIQYRVYPKMNVCDDHQIYTDAKWLKFAIGQVVTNAVKYSAGKSDRLELNVFCDEDRTVLEVKDYGVGIPSQDIKRVFDPYYTGENGRRFQESTGIGLHLVKEITDKLNHTVDISSSPGEGTSVRFSFLTK,not soluble
13,MSESIESYGIRLLNVYRETICDGPGLHYSIYLAGCRHACPGCHNPSSWDPEAGVLMTDSILGNIIREINANPLLDGITLSGGDPFYNPAGLTCLLQRLRASCTLPIWCYTGYTLEQLETDPMLSAPLALIDVLVDGPFVRELFDPTLLWRGSSNQCIIRLHENLEHHHHHH,not soluble
14,MSFLKCGVCTEDYSNVITNRHPKNLTCGHSICKACSSKLVSNFKILCPFCRKTTELRENENLQTNFALLEAISLFNDINESVTEPRSSGAPPNCEEHTYNLAEFVCISPNCSSRSKLMCRTCEEFGVHAGHRKGLLQVEAKKVRQNLLERQRKLQVNKKQVDDKIQALEKAALKKNDELYKEKYDEITRHYDRIRSSVAEREKTSKEVLKKSVLTSEEDNRMGQISNHVIRHLLEKKCEEVEQLVGMTDFELYRVKDKVDWNDESFSFSDVKEKPPMELKTLHVKLPEFRFEDSS,not soluble
15,ARVDQTPRSVTKETGESLTINCVLRDASYALGSTCWYRKKSGEGNEESISKGGRYVETVNSGSKSFSLRINDLTVEDGGTYRCGLGVAGGYCDYALCSSRYAECGDGTAVTVN,soluble
16,GRAPRNGEKVLVEFVSANPTGPLHVGHARQAALGDAICRLYDASGWDVTREFYYNDAGNQIDNLAISVQARGRGIAPDAPDYPTDGYKGDYIVEIARDFAARKSVQASDGQPVTATGDLDSLDDIRAFAVAYLRREQDLDLQAFGLAFDNYFLESSLYASGRVQETVDTLVAKGHTYEEGGALWLRTTELGTGDDKDRVMRKSEGGYTYFVPDVAYHKVKWERGFHHAVNIQGSDHHGTVARVRAGLQGLEAGIPKDFPAYVLHKMVKVMRGGEEVKISKRAGSYVTMRDLIDWVGRDAVRYFLIQRRADTEFVFDIDLALSKSDENPVYYIQYAHARICTMIGNSGA,not soluble
17,PVYAGGQVARGGQLGVLGNADIMDVPFTMTSYTEQLIEDQQAEDVGDVLLNDASVRQSSGYANASKIFVIRGLKLTTDDISYNGLYGVLPRQIISTDALERVEVFKGPNA,not soluble
18,SMQEKYRLVVVGGGGVGKSALTIQFIQSYFVTDYDPTIEDSYTKQCVIDDRAARLDILDTAGQEEFGAMREQYMRTGEGFLLVFSVTDRGSFEEIYKFQRQILRVKDRDEFPMILIGNKADLDHQRQVTQEEGQQLARQLKVTYMEASAKIRMNVDQAFHELVRVIRKFQEQ,soluble
19,MRWKKINITINNVEMILVAAIIIDVPPVVDLCVKTMIHNINSTNCIRMFNFSKRYGIKKLYNASMSEIINNITAVTSDPEFGKLSKDELTTILSHENVNVNHEDVTL,not soluble
20,MVTAEIRLYITEGEVEDYRVFLERLEQSGLEWRPATPEDADAVIVLAGLWGTRRDEILGAVDLARKSSKPIITVRPYGLENVPPELEAVSSEVVGWNPHCIRDALEDALDVI,not soluble
21,QTFSEEDHAILASYFPIVDGIAALIGEHCEIVLHSLEFLENSAIYIANGHNTDRKIGSPLTDKALKSLHQMQTDSVSKPYFTRLKGGILMKSITIAIRNSKQHVIGFICININLDVPTAQFLTSFIPRTQDDEN,not soluble
22,MSLKSWVKMNSWTSEDTKAVKMWFDLDKYREFENISINMLYHEIWARTYFFKPVIEEGMQKTVLKNYMQILDGDPFLIKEKHLNYMDSENKSYQPPYFFITTVDRIANISFACMRKALFIRANTEQYKIDSTIENEYISEIIPEQFPTTIMLEIDLAGGSDDEIAEALRVSLPQWRKVKGVKPAPLDAVRFGYGAIKKLISYRIIPMLDLLAWSERKKVLLSDDRLSRLLYTDEDDDKAIRQGYHIRDADRPFAMKTVETDFLRQFNFFINKNQHVKEMRVSDVMKLSDSEGHHHHHH,not soluble
